# Measurements taken from the domain aggregation screens of Martell et al. (2025).
# Assay: soluble fraction after stress (log2 fold change); higher = more stays soluble; pooled small domains, quantitative proteomics
# Details: stress: 75 degC
# 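Further: 20 min heating vs room temperature control held 20 min.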
row,Sequence,soluble fraction (log2)
1,HMNAKKSTLQLDLLKQLLEGNKISLKDFSLSNEISIRTAQRYIEDLLEIFEKNIVKEGDFYSFIS,-3.4
2,HMNAKNPRALAIQYVFKMQMGNFLHAKTDNQQQEQERIMTLFNEENKNTILPRWGKELLSYINRN,-0.74
3,HMNDENIIIEEIKYFIKSNQIKEQEKLPSERNLSELFTVSRFSLRKALRHLVDTGYLYVKDKSGYYYQGD,-2.55
4,HMNDLIKMPYLVGQLYDDVASNQEYADFQFKITEGNDPDKQPGEIMKQDPAADIMVKKNAEVELLVNG,0.374
5,HMNDLKEDTITVQSVEYIDSDDGTMVYIKDTNHQVYKQAFKEDESLIRISAGDVLHVKYQPMDNEIHLL,-0.341
6,HMNDMPELLSIKEASQWATEYLNKNVTTSNIAYLIQYGRIRKIGNNGSTQVLKDDLVKYYKDQK,-0.11
7,HMNDMWADITINANGKATLVVHTHEIKYLGLTGHLGKMEINGTAKEPVKDSSGDVVDYYFTFTDLDASMF,0.328
8,HMNDNFTPDDLNRLARIKDLPQAKKYALELISNKSAKPMKPEKVRWFANQLQKKKSVMDITKMMYDLLLA,-0.423
9,HMNDNTAINEFKKMVFTRMVHLQIDNAELSKLSGVTNSKILALKYGNSNTLKLGDIVKVAKTLNINLNDL,-2.86
10,HMNDPFVILGVSKDASQSEILEAYKQKRAYYQERVFDEGDEGAQAARMLTQLDDAYQQAMELSHES,0.183
11,HMNDPIESLTPREREVLTLMAEGRTNAAIAAQLVVTEGAVEKHTQHIFAKLGLLPDSAVHRRVKAVLALLS,-2.35
12,HMNDPNAPITENQLKAIHVLLDKLKVDDNLKHAYIADVLQLDNEPETLKTLTKAQGSMAIERMQLLKDN,0.736
13,HMNDQLIYSDFIRQVQDGQITEVTISGLNIAGTRSDGSVFNTLRPYIEDPKLIDDLLSHNVRIQGAE,0.168
14,HMNDRERIGKRIAQLRMEAGISQYKLAELTGLAPGNIARIETGKYSTGIDILSKIGDALGYQLDFI,-2.14
15,HMNDRLAGMEGQRGEAATNFDQGEGKVKVGDTVWLAKQSDSTVIVEGDQIVVTGSENGLLKVRL,-0.25
16,HMNDTLGVNIKRLRKEKGMTQDEVAKAVYTTRYNILRYESGKMTPSSEVIERLEKALGVPTGSLAQ,-0.348
17,HMNDTSLIIDNLMLKLGNNIKNFSEIYSLLRKNLAEYGEEFIKSKVDYVLKNFNDNIEENLKKLLTE,-0.394
18,HMNDVGKVLNQLGERDRMILLLTYWDELPLKEAARILEVSENNAKIILFRARSRFASLWSAGS,-3.14
19,HMNEAVVVPDVKGLTLDEADEFFKNSKLRYNVVDSVFSKDVAPGAIVELVPVAGSKVKENRIVFVTINAQ,-0.361
20,HMNEDTEDIKNINSLVNKLTENNFDIIRDSIVKLINKEHLIPYIIETIIEKSILHHRYVHLYVSILKE,0.219
21,HMNEDYSSMVGKTGFALTILRPAGKIMIEEEVFDAVAINGYISKGQEVEVVRYENAQLYVKVK,-1.04
22,HMNEFGIPDKKLQDIETRVNSMSLEQLNAARSMLIDEQEALNSSTGSASSGRLKEIAAELSTIQKALIAIA,-0.00417
23,HMNEFNEVVPDSLEGERLDRLLAFIGNISRSEASNIIKGGEVLINGKVVTRPSFKVTLGNRVEFSIRD,-0.531
24,HMNEGETLYRLRAGDGRARLDKFLAAALPDISRTRFKGLIESGHVRVGGETITEPAYRVKSEAEVELTVPE,0.0126
25,HMNEIALETAIEDVESFIQMQNRNLAFSIDEDTDRAVVTVRDSDSGDVIRQIPSEEVLALAERIQDLQQD,0.0361
26,HMNEIDDYDIQLLEYLSKGVSQEAMESVFKQAGITPNSKSTIEKRISKLKIYFKALNTTHLVSITKDLGL,-0.647

row,Sequence,soluble fraction (log2)
1,HMNEKEAEEAAEAQTEVPDVTGMAPAQAKNMLYQAGLSSEYRGEGETVSRQLPPAGETVNRGTKAVLYL,0.0203
2,HMNEKGTNSTINEITRISKPGRRVYVGSAEIPKVKSGRGLVLISTSKGVMTGAEAAKAKLGGELLLKV,-0.000493
3,HMNEKMKEIGLRIKELRELSDISAQGMADHLKIPLETYQEYEDGKKDIPASILFEISQKMEVDMGLLLTGE,-0.476
4,HMNELTDKQILLFSNKLAHNIPFSSKYSKPGESYEEFAERLANELIDPQKVKLYKPYLEEVGFK,0.788
5,HMNEMIFNQKKIGQFFMNPETNSPMIYPLELGHKMKIIELKNGWYNVTDEKTGLNGWVKEEDFGVTKPLDS,-0.346
6,HMNENDENLRQQAIDASKEVRRWGEPVTLPPMNAHDRRIIHITLEGESDLQTESTGEGNFKSVVISLK,-0.171
7,HMNEPSSYGYAISVALDRNGLGTVKGGTLYPLLARLEQAAHVETRWEAGDGGPGRKYYTITDSGRS,-0.214
8,HMNERLKQLRLSLNLNQEEFGKWLGISKSGVSDIESGRRKVTEQHIIMLSNHNISEKWLRTGEGEMFV,-1.21
9,HMNETNKMPNLVNQTDSSAIAQLNAMELGLKITTKEESSETVLAGYVIRTEPAADTELTKNQAVTVYVS,-0.00951
10,HMNETTVPDVINQNISTGKIIIEDADLEYRIQYIPSEKSSSIGTIINSIPIYGKRVKSGTIVDLKVLG,-0.248
11,HMNETVTNQTVLDLLKEGFTSEEIIGAIENSSTRTITYDINFMRQLKAAGADVTLTTYLQKIAKKDM,-0.136
12,HMNEWSIDINLADEKQWTAKTKLSPAIIQNIIRYKNYLGGFTNLNQIKKVYGFTEANYYLLKPHLQLGK,-0.837
13,HMNFDLDSFKQRMTLDGLYFGNEKQDVIALNNLSERYQLTWFDVYQLAKETSSNHKILPKRILVKLQQ,-2.09
14,HMNFEIEVTENGKRIDSYLAEELDLSRSKVQKLIKQELVTVNGKVVSNNYNVKLGDTILVNDD,0.113
15,HMNFFQEIGNSILIELNKKNWTQSMFAHKIGVSDEVFKQIVQGKKALNAVEIAKIANTLDVDPEKLLRK,-1.08
16,HMNFTEAEQRFHFLEDQRQRGVLSLEQYRAELAQLRVTDAWGRLWMLQEQTGQWFVFHEGQWRPSQ,-0.408
17,HMNGEDVTDAIRLPQISQYASVVSAYPGVRAFLLEMQRDFARKGSVIMDGRDIGTVVLPEAEVKIFLT,-0.367
18,HMNGGPHYLRDVRTSLGLSQADLAKAVGTSANMIHYLESGERALTLKWIRRISEALNVSPMRLIN,-2.06
19,HMNGLPDLSRYTGVSIVDGLASVGSDSSFAYRAKIAETLGISDYKGSAGQNLEMIRKLGGKV,-0.517
20,HMNGTGSVYKLSGKRRNPWRAVVTNGWAYNEEKGKLVQNRVTIGYYHTRDEAIQAIANYNSSP,-1.53
21,HMNGVFIMHTPDGKVLRTEEGEEAVITLFNWSGQLLWSKTSLGQLPLPEGTQGVLQVQYKSGDQHTIKT,-1.28
22,HMNHAPSLMRKIRRGLKEGRNPDDLLVNAKSISDYYYRSLSFYLLAPHFSSKSKQYKQVISLANS,-0.064
23,HMNHHTEQQLKALSNKVKDHRMRMRLLAVAHFKAGKNKADVARTLNVSRRMVNEWVANYFKGGVSALES,-3.43
24,HMNHLLYPNPANNFIWIKNSTSNTAVIYNLQGVMSKVEVSEEGKIDISRFSPGLYMIKQGERIYKFTIA,-1.75
25,HMNHLSYEQRLKIKEMLDGGFKKIDIARALGVHNATIYREIERGSVNGIYNPNKSEEQYRDHLSEK,0.378
26,HMNHYIGVDRAKEIALNHANLSETDVVFTKEKLENDDGGAEYEIEFHSGRTEYDYTIDAASGNIIEYDVDY,0.324

row,Sequence,soluble fraction (log2)
1,HMNIDGLIGKKALVTADIDNVNSKGQIKINGLEWTARSVDDEPIPMGTEVEITAISGVKAIVRKG,0.139
2,HMNIEANLEDILRRAMPSAAKLILENSLNINKIIGTGKEGRITKGDVLLYLKDKNLILENILN,-0.079
3,HMNIEEAESILKEIKTVLTDKEYEVYTLRAKGFTYQEIASLLNTTTKSVDGALSRIKTKINNIK,-0.674
4,HMNIFKLYEENIGPLTPMIADILKEDEAEFPDYWIREAIEIAVKKNARNWKYVHAVLESWQKE,-3.47
5,HMNILKAPMPGLILDVIVKESDLVKKGDPVIILEAMKMENILSSPVDGIVKEIKVNPQQTVEKNNTLIKFE,-0.0843
6,HMNILNFSENIIKLRHKKGITQEELADFVGVTKASVSKWETKQSLPDIMLLPRLAAYFDVTVDELLGYEP,-2.16
7,HMNINHEINIKSKKKISILENNPNLSQFYLTKNPDQYNYNLVFSDKSELNKLKEKLESDNEVEDIDIRYG,-0.0517
8,HMNINTEMEKVSYSLGVNIASSLKQQGWELDAKSLSDAFVDVFNGNKLLIDEKEASSILQNYQQKIANK,0.0321
9,HMNIQKYFAGREQFIELLEAVGIRTLEQFASADPSTVLPELHQAKRMLKLQTEIPSAPVFREWVNQALS,-0.636
10,HMNIQPAMLNAANGGVAWKERGISMSQIMKRNAHTAEGSQKLWDYAFENFFQKNIDAGNIRDDR,-0.157
11,HMNIVKGDTTANVRVVQQRLYNLGYYTYKVDGIWGTRTKTAVKKFQKDKGLVADGIVGAKTEKALGITLT,-2.35
12,HMNIVVSSIDSNSFEIVNKETGEQAVISYDKETKKGFVLINGVKKEFFQDGNKVYYDGYVIAE,0.0406
13,HMNKDEFLNELKSYLSILEDEEQADILEEYTQHIDMKISTGLSEAEAIRDFGNVSELAAQILEAY,-0.465
14,HMNKIGTIVSINGPIVKTAGDVGFVMHEMVYVGKEKLVGEVIGLTTDFTIVEVYEETSGIKPGETIEGT,-1.87
15,HMNKKEIISVLEKIIPPSQIKNINIFGSELVIDLNIDNPSLHAKKKLEKSIMSSFDENLKIIVNFSVE,-0.252
16,HMNKLSISALAETVSTKRKEKSMTQQDLSDATGINRALISRLEQKDFIPSIPQLEKLEEILGFELEEVF,-0.324
17,HMNKMHKLPSVSEILNKVRLQKIHNESFIKFKIKEEIDRYRKLAKKDQLFLSRDEITYEIIEKLLNFSMPS,-3.97
18,HMNKMIDAPDLTGLSLEDAKLVLEANKLQLGTVSHEPSDKPEDVVISQDPMEGQEIQQGGKVNLVVSYGD,0.305
19,HMNKNNLRNVSSKIRKSRRVLNLSQAELSKKLDISPSYLNLIESGKRPITVPLLIKLGNILGISLKDL,-1.89
20,HMNKNQIGTNAGIVWKLLSDNVHWEYDKLKHASGLSDRDLNAAIGWLAREDKIDFDIDEQHDRLFL,-0.515
21,HMNKPKIIINSVDDSVFSDYVKDSLSIAEVARSIGIDNNKINTSVYREIHKRIDSLKLDTSHFTGGAWN,-0.235
22,HMNKPLFVYPNPVHQGKINLSKATNFMVVDLLGQTVNKTNYGKDFSIDNLPNGVYFIKTTEGEIIKFMK,-0.701
23,HMNKQEFLNTLRIIFKKANVLDVESIIDVYEEHFAVGYEKGLNDEQIIKSLGTPKEIYTSYVEAGI,-1.31
24,HMNKSGVVLIRVTVDASGRVTSAAYEPKGSTTSDVELVAEARKAALRTRFTESRTVIEGGVITYIFKL,-2.59
